Paper PMC4909244, “Crystal structure of glutamate-1-semialdehyde-2,1-aminomutase from Arabidopsis thaliana” (Acta Crystallographica. Section F, Structural Biology …, 2016)

Molecular target: the molecule itself
Assay: SEC; size-exclusion chromatography, in solution; data not shown

B1: Glutamate-1-semialdehyde-2,1-aminomutase from Arabidopsis thaliana (AtGSA1) (enzyme)
chain: not shown
notes: The sense primer puts a TEV site (ENLYFQG) directly before VDEKKKS, so a Gly may remain at the N-terminus after cleavage (surmised from the primer); The protein retains the cofactors PMP/PLP; The first six N-terminal residues are not modelled in the structure; also called GSAM; glutamate-1-semialdehyde aminotransferase; source: E. coli BL21(DE3), purified (nickel-nitrilotriacetic acid column, TEV …)
Q: With B1 as the protein, how does the “stoichiometry N” value read?
A: The value was 2.
